Changes are numbered by the printed parent chain.
B1: 3C9.10 (antibody, V domains shown)
VH: QVQLKESGPGLVAPSQSLSITCTVSGFSLTGSGVNWVRQPPGKGLEWLGMIWGDGNTDYNSALKSRLSISKDNSKSQIFLKMNSLQTDDTARYYCARGAYYGKRWYFDVWGAGTTVTVSS
VL: DIQMTQTTSSLSASLGDRVTISCSASQGISNYLNWYQQKPDGTVKLLIYYTSSLHSGVPSRFSGSGSGTDYSLTISNLEPEDIATYYCQQYSKLPPTFGGGTKVEIK
notes: Mouse hybridoma antibody; constant regions differ by assay (hybridoma mouse IgG, recombinant human IgG1 or mouse IgG2a)
B2: 9C9.5.6 (antibody, V domains shown)
VH: B1 VH with T30N, S32Q, N56S, K75R, I78V, Y100H
VL: B1 VL with G28N, S30N, D41H, H55P, T85S
notes: Mouse hybridoma antibody; constant regions differ by assay
B3: 13A9v2 (antibody, IgG1, V domains shown)
VH: EVQLVQSGAEVKKPGASVKVSCKASGYAFTNYLIEWVRQAPGQGLEWIGAINPGSGATNYNEKFKDRATLTADKSTNTAYLELSSLRSEDTAVYFCARFLGNYFDNWGQGTLVTVSS
VL: DIQMTQSPSSLSASVGDRVTITCRASGNIHSYLAWYQQKPGKAPKLLIYYAETLADGVPSRFSGSGSGTDFTLTISSLQPEDFATYYCQQFWTTPYTFGQGTKVEIK
notes: humanized variant of 13A9
B4: 13A9v1 (antibody, IgG1, V domains shown)
VH: B3 VH with A68V, L70I, K74T, N77S, F95Y
VL: B3 VL
notes: humanized variant of 13A9
B5: 13A9v3 (antibody, IgG1, V domains shown)
VH: B3 VH with A68V, L70I, K74T, N77S, F95Y
VL: B3 VL with A43S, I48V, F71Y, Y87F
notes: humanized variant of 13A9
B6: 13A9v4 (antibody, IgG1, V domains shown)
VH: B3 VH
VL: B3 VL with A43S, I48V, F71Y, Y87F
notes: humanized variant of 13A9
B7: 13A9v5 (antibody, IgG1, V domains shown)
VH: B3 VH with A16S, L81M
VL: B3 VL
notes: humanized variant of 13A9
B8: 13A9v6 (antibody, IgG1, V domains shown)
VH: B3 VH with A16S, L81M
VL: B3 VL with A43S, I48V, F71Y, Y87F
notes: humanized variant of 13A9
B9: 15F11v2 (antibody, IgG1, V domains shown)
VH: EIQLVQSGAEVKKPGASVKVSCKPSGYAFTSNNIYWVRQAPGQGLEWIGYIDPYIGRIIYNQQFKDRATLTVDKSTSTAYLELSSLRSEDTAVYYCSRSGERSNFDYWGQGTLVTVSS
VL: EIVLTQSPATLSLSPGERATLSCSASSSISSNYLHWYQQKPGQAPRLLIYRTSNLASGIPARFSGSGSGTDFTLTISSLEPEDFAVYYCQQGGSLPLTFGQGTKVEIK
notes: humanized variant of 15F11
B10: 15F11v1 (antibody, IgG1, V domains shown)
VH: B9 VH with I2V, P24A, A68V, L70I, V72A, K74T
VL: B9 VL
notes: humanized variant of 15F11
B11: 15F11v3 (antibody, IgG1, V domains shown)
VH: B9 VH with I2V, P24A, A68V, L70I, V72A, K74T
VL: B9 VL with A44S, I59V, F72Y
notes: humanized variant of 15F11
B12: 15F11v4 (antibody, IgG1, V domains shown)
VH: B9 VH
VL: B9 VL with A44S, I59V, F72Y
notes: humanized variant of 15F11
B13: 15F11v5 (antibody, IgG1, V domains shown)
VH: B9 VH with A16S, L81M
VL: B9 VL
notes: humanized variant of 15F11
B14: 15F11v6 (antibody, IgG1, V domains shown)
VH: B9 VH with A16S, L81M
VL: B9 VL with A44S, I59V, F72Y
notes: humanized variant of 15F11
B15: 6E1.1.12 (antibody, V domains shown)
VH: QGQMQQSGAELVKPGASVKLSCKTSGFTFSDNYISWLKQKPGQSLEWIAWIYAGTGGSSYNQKFRDKAQLTVDTSSRTAYMQLSSLTTEDSAIYYCARHDYYGTSGAWFAYWGRGTLVTVSA
VL: DVLMTQTPLSLPVSLGDQASISCRSSQHIVHSNENTYLEWYLQKPGQSPKLLIYKVSNRFSGVPDRFSGSGSGTDFTLKISRVEAEDLGVYYCFQGSHVPWTFGGGTKVEIK
notes: mouse variable domains

Legend:
[1] = biological target: MICA*004 on HCC1534 cells (human, UniProt Q29983 24-383); assay: cell-based or functional assay
[2] = biological target: T1, MICA*008 on MEL-JUSO cells (human, UniProt Q29983 24-317); assay: cell-based or functional assay
T1 chain: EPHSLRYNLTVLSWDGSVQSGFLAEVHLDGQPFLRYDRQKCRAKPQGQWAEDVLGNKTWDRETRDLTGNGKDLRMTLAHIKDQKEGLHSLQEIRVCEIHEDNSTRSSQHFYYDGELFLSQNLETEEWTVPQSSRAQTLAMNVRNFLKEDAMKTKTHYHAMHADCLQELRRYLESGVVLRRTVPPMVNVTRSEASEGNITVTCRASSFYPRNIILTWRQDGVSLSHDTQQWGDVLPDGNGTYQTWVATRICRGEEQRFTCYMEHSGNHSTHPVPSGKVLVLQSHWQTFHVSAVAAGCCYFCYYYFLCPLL

[3] = biological target: T2, MICB005.His (human MICB*005 alpha 3 domain, His tagged) (human); assay: SPR, antibody captured;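 further: SPR with antibody held by surface-bound anti-Fc while His-tagged alpha three domains flow over, Kd derived by fitting a one-to-one binding model to sensograms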
T2 construct: also called huMICB*005 alpha 3-his
T2 chain: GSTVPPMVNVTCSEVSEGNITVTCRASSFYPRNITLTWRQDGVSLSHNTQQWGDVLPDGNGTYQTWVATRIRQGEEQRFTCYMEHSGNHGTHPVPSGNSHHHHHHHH

[4] = biological target: T3, MICA*008 on MEL-JUSO cells (human, UniProt Q29983 24-317); assay: cell-based or functional assay
T3 chain: T1 chain

[5] = biological target: MICA*004 on HCC1534 cells (human, UniProt Q29983 24-383); assay: cell-based or functional assay; remark: listed apart in the source
[6] = biological target: MICB*005 on HCC1534 cells (human); assay: cell-based or functional assay
[7] = biological target: T4, huMICA*004 alpha 3-his (human); assay: SPR, Biacore 8K, antibody on Protein A chip
T4 construct: whole construct entry: GS, alpha 3 domain, GNS, His8; also called MICA004.His; MICA*004 alpha3 construct
T4 chain: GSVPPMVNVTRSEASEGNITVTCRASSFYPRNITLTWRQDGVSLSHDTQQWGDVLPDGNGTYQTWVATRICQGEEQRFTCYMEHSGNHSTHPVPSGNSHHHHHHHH

[8] = biological target: T5, huMICA*002 alpha 3-his (human); assay: SPR, Biacore 8K, antibody on Protein A chip
T5 construct: whole construct entry: GS, alpha 3 domain, GNS, His8; also called MICA002.His; MICA*002 alpha3 construct
T5 chain: T2 chain with C12R, V15A, S28G, R32W, T37S, N48D, R72C, G90S

[9] = biological target: T6, huMICB*005 alpha 3-his (human); assay: SPR, Biacore 8K, antibody on Protein A chip
T6 construct: whole construct entry: GS, alpha 3 domain, GNS, His8; also called MICB005.His; MICB*005 alpha3 construct
T6 chain: T2 chain

[10] = biological target: T7, huMICA*008 alpha 3-his (human); assay: SPR, Biacore 8K, antibody on Protein A chip
T7 construct: whole construct entry: GS, alpha 3 domain (Thr204-Ser297), GNS, His8; also the construct of the FPOP experiment; also called MICA008.His; MICA*008 alpha3 construct
T7 chain: T2 chain with C12R, V15A, T35I, N48D, R72C, Q73R, G90S
Wherever % Inhibition is given: test concentration or dose not given here.

Binder	% max inhibition of shedding [1] [%]	EC50 of shedding inhibition [1] [µg/mL]	% max inhibition of shedding [2] [%]	Kd [3] [nM]	% Inhibition [4] [%]	% Inhibition [5] [%]	% Inhibition [6] [%]	Kd [7] [nM]	Kd [8] [nM]	Kd [9] [nM]	Kd [10] [nM]
B1	24	50	< 10	45	–	–	–	–	–	–	–
B2	44	3.18	< 10	11	–	–	–	–	–	–	–
B3	–	–	–	–	12	10	60	5.32	4.44	3.15	2.56
B4	–	–	–	–	10	12	43	8.37	5.87	5.12	5.6
B5	–	–	–	–	2	25	42	4.79	4.97	3.15	3.85
B6	–	–	–	–	-31	-29	63	3.69	3.93	2.4	2.72
B7	–	–	–	–	4	9	63	5.52	4.27	3.17	3.68
B8	–	–	–	–	8	16	6	3.77	3.94	2.45	2.8
B9	–	–	–	–	62	43	35	2.74	5.05	6.71	3.17
B10	–	–	–	–	4	3	43	5.96	12.8	16.1	6.52
B11	–	–	–	–	50	39	-49	5.7	12.7	14.1	5.56
B12	–	–	–	–	-19	-34	44	2.58	4.75	5.72	2.58
B13	–	–	–	–	62	46	-35	3.11	6.05	7.8	3.2
B14	–	–	–	–	-8	-14	59	2.91	5.47	6.62	2.94
B15	–	–	–	–	31	34	58	3.95	1.49	2.96	3.72

Reference: US20200055939A1 (Genentech, published 2020)
